{"source": "the supplement of paper PMC12636428", "data": [{"tested_on": "Saccharomyces cerevisiae", "experiment": "transcriptional activation domain activity (GFP:mCherry ratio, weighted mean of sorted bins, harmonized to initial dataset scale) (arbitrary fluorescence ratio units); higher = stronger transcriptional activation", "details": "beta-estradiol 1 µM; induction time 4 h", "how_it_was_run": "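Values are activation activity, found as the read-weighted mean of bin median fluorescence, averaged across barcodes and then mapped linearly onto the initial dataset scale. Barcoded protein tiles fused to an estradiol-inducible synthetic transcription factor were integrated at the URA3 locus of GFP-reporter yeast diploids. Cells were induced for 4 hours at 30 °C with 1 uM beta-estradiol in SC, sorted into 8 bins by GFP:mCherry ratio, and barcode-sequenced, with tiles under 50 reads discarded.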", "values": [{"sequence": "HRQTTLSVALPCGELHIAYLVAGLLFHGATCDDIVVIMLCARILFSVCKIYYH", "transcriptional activation domain activity": 77100}, {"sequence": "TGSTIVRGVLHVFSDQKVNLEQISFGQLNKMIGLLGERRDYRTLSWLLTILWN", "transcriptional activation domain activity": 73300}, {"sequence": "MRFSSLLFLFCLFHFPLFFFFFSSFFNFCLPILFLPNLFSPFLFPFSPHLFFF", "transcriptional activation domain activity": 51900}, {"sequence": "NIKTFLYTCITHIYINFILCLCACITHYQVYYHYYVNIFTFIFVWLCSFFLFL", "transcriptional activation domain activity": 45200}, {"sequence": "LIFCVHMTVILFVILFCYLNRGFVPMTNGKYFYADFRISNTWGFITSLTLVLN", "transcriptional activation domain activity": 38100}, {"sequence": "MFCLRSWIPVLFFLLRTNASPVYLVLFLSATYFLNRPCVYCSLLLFILVVALF", "transcriptional activation domain activity": 46500}, {"sequence": "YQVYYYYQHFRNDAFGMQCLVYGASLINLLHSILLPKCVYFWVSTYWGNLSAL", "transcriptional activation domain activity": 60400}, {"sequence": "NKDGNGDGGEGKDKDEENRSGNRDGKRERGRKEDRERVAGSSGGGAKGLKRKR", "transcriptional activation domain activity": 42600}, {"sequence": "RISGRVIWSLLICHASWYLNFFIQVGVLSKRLSSPVVLCGVVSFQLLNILLIT", "transcriptional activation domain activity": 53000}, {"sequence": "GSVGDELVCVVKRARPIAPSSASNAIKVRRGDVRRAVIVRTKKAVRRPDGRLI", "transcriptional activation domain activity": 29900}, {"sequence": "NPIIRVRGIGLSLTSICFLHCYWILAQVVYPIGQSLPVILAYDIQYFFMGLWF", "transcriptional activation domain activity": 56900}, {"sequence": "RRSHRSHHSSRSRDEEGKERRSSRGEDEKRAHRSRDEDEGRRRRRSHRDRDEE", "transcriptional activation domain activity": 18900}, {"sequence": "LFSLCFSEICTLFLLLMCQGIDLLDPGVRLINWKVSLWLLLATILVFIPLSYS", "transcriptional activation domain activity": 43900}, {"sequence": "STPAAKPTPEPGQQPRKRGRPRIIRDDPPEGGGPPAAKKAKRGRKPKVVAPPA", "transcriptional activation domain activity": 27400}, {"sequence": "LLEMGLRWTLDAFGDSARMAGHIFHCLSNLEMTLPSYMYIQLLRSILKLPKTV", "transcriptional activation domain activity": 31000}, {"sequence": "SIHEPVDFLEPQPFLDFFVVFCFRLLFLWLLIFIFLFRLFIVFSLLFLFLHHI", "transcriptional activation domain activity": 28600}, {"sequence": "IRRHFNRKYHQCLLVVIVLGVYLAIGLNWGRFYLVCWVLLHFCIVILGPLYFL", "transcriptional activation domain activity": 53400}, {"sequence": "WGRKGRGKSPLYDFDVNEFDPQVLFSTGTRTVEFMDDQNQPSSASAFLSTARP", "transcriptional activation domain activity": 49300}, {"sequence": "SSFVLCLLQCLDVPSLVELTVRRVNSRLRLLLSCKVLLAGLVRLAIHGDIEMA", "transcriptional activation domain activity": 52200}, {"sequence": "RHYCYIIVLKSLMYESPRIIGFAWKPEEGHFFNKVMYRTFVGLLMLLQVLLVG", "transcriptional activation domain activity": 55900}, {"sequence": "VAEDLFERVRLDWLILFDLRMWKKVRCDLRSLYISTVVTIPEFKRVLGLRFAG", "transcriptional activation domain activity": 37300}, {"sequence": "MSGQLPAGAPRASPADASPTGPRAPTSSRPACLSCHTHKKRCVWKSAAPGTPC", "transcriptional activation domain activity": 69400}, {"sequence": "KARQEKQPPMTQKDLATKVNEKPSVINDYESGRAVPNQQVLSKLERALQVKLR", "transcriptional activation domain activity": 22500}, {"sequence": "GNTGAGGEALVRSVGGSSAVEYPVCVEMDVVSGADGGEKLVWRTACDSRFVDG", "transcriptional activation domain activity": 44800}, {"sequence": "PFVVTLLNLWKIWSLKLLKEKARLVVDGGAFVMGCVDETVTLRGHDDHKWTKD", "transcriptional activation domain activity": 56800}, {"sequence": "RRPRAAKPGTEQPKPETEKPGSEKRPGSEKRPRGRPRKAAAKPSTEKQPSNAK", "transcriptional activation domain activity": 21300}, {"sequence": "MRKVLANVPGPGGTWGLGFISGVLLVNPKRLLGYLLRCWSTHHGKLARCLWPI", "transcriptional activation domain activity": 47600}, {"sequence": "SIAISPESAVANLGTDTGLPSDVLDTVSKIGNSPNVFDDDLFSNLLWFDQNFA", "transcriptional activation domain activity": 142000}, {"sequence": "NILVRELQWCILCIRYTALGSLDHIRRLMTEIPAHHGLVRFLQRWVENWLEEQ", "transcriptional activation domain activity": 37400}, {"sequence": "GFSRTAGAKSMPASRRTSASGDDDELAGHLQGLSLAGERSNRVSPAPAPVSAS", "transcriptional activation domain activity": 44900}, {"sequence": "DLLAHCKRELVHAIWTLLLDDVFLHAYKYGMVVRCADGVEQRIYPRIFTYSAD", "transcriptional activation domain activity": 41200}, {"sequence": "VALACLLTVLPFLVVLGTFILSLTIYTFFLDRSIMVAFFHPFLHPFFFFSFFV", "transcriptional activation domain activity": 25400}, {"sequence": "PSGGLFGNNNASTTTGGIGLFGNNNAAASTGGGLFGKPAASTTTATTGGLFGA", "transcriptional activation domain activity": 17400}, {"sequence": "AAKMAREYKKGERQAGRMRTEKGERGEEDGREREGTRRRREKEKEKNKEKGPR", "transcriptional activation domain activity": 46000}, {"sequence": "GSKIILVVEQCMCVVIWGCKVCFLLIFWKLAWGLRVRLLIKLVASYVVATFLV", "transcriptional activation domain activity": 65900}, {"sequence": "GGAARVDREEMPGVTLCLRHLSACVLGVFLVESSKKVLVVVRTEPITLSKSFG", "transcriptional activation domain activity": 45200}, {"sequence": "MWYFSRCTRWFLPLLLLPMPTAPPYFLLLFLLSFILHAKPCFYCVILITSLFI", "transcriptional activation domain activity": 60200}, {"sequence": "MLRTWVLLLLVGLLGVFVRADDEPASEEPKSGGLSLSRLSQLVTSGVTGARPP", "transcriptional activation domain activity": 39300}, {"sequence": "STGGARKGSAAPSKTSSSNISGRDKEKSRSKEKLGSQSALAAGSTPAPKAAAA", "transcriptional activation domain activity": 47900}, {"sequence": "YGILTLQYLVGVIWVLDTLHTIFVTHMVYTYLVTNFGDYLALGHNIWSFNLHV", "transcriptional activation domain activity": 37100}, {"sequence": "SNPLTSQANRMSSYDKKTNVLGFDDGTFDNKVFNRTNFEEKAPFDIPLDEFFT", "transcriptional activation domain activity": 119000}, {"sequence": "KIVKHVILAATWRTSSVQDSFYLLATWWIICWQFYFVSVYIFPLILIALLHYM", "transcriptional activation domain activity": 60700}, {"sequence": "NILFHKLFYAYENVLVIISLIYKKKPLGRLQNTRKCSSINVLCNYILEYGRKY", "transcriptional activation domain activity": 42100}, {"sequence": "PKVLYILARYLGIIYISLFLGLRWSHFPIFVMKVNNLAYFVNALLYYTWIIIT", "transcriptional activation domain activity": 33800}, {"sequence": "MHNSRSSFLVSCFFIYFFSLLVHCEGVLILTPIPFQNHLVSILECFLFYLFLF", "transcriptional activation domain activity": 51600}, {"sequence": "PEAAPGEEVKEEAGEEQKPDRRDRRGRDRGGRGGRDRGRGRGGASRGGKRGDT", "transcriptional activation domain activity": 26700}, {"sequence": "LVLRSPAILTLEEEEDVAANLSQYSVQCSEVDKFLLTYVILKLKLVKGKCLIF", "transcriptional activation domain activity": 72300}, {"sequence": "DEEDIWNYLPSSSSQQEDSSRALKKNTNSEKANIQAKNDETYLFLQDQDESAD", "transcriptional activation domain activity": 46700}, {"sequence": "AGSGGEGADGNETRRRSSGRGRGRGRGRGGRASRGGRGGKSEGAEGFTEKAEG", "transcriptional activation domain activity": 15900}, {"sequence": "KFTAFTFLPLTLWHEFSFFFNLYFLVVALSQCIPVLRIGYLSSYIVPLVFVLA", "transcriptional activation domain activity": 54900}, {"sequence": "RASHNASGFPNFLDTSCSSSFDDHFIFTNNLPFLNNNSINNNHSHNSSHNNNS", "transcriptional activation domain activity": 56800}, {"sequence": "KLIKHNKNVRTWWKKDDQFWVPRGHIHVYFRTPIIGITVRAQLTASLFINLVH", "transcriptional activation domain activity": 47300}, {"sequence": "ISCAVSACIVCVINCAVTVWASVNNKANKGVLFEGDCEKVRQMNTGLHLLINL", "transcriptional activation domain activity": 66400}, {"sequence": "LDRTVEAFRHADALRDVHLYGMVFSYFKMPLWQLTRFSGDIIGLNEYLLLFYN", "transcriptional activation domain activity": 38000}, {"sequence": "EREVRDEERTRRNREKRNRKKGKGGKGGKEDGGAGGGGGGGNVKARVGMVGDG", "transcriptional activation domain activity": 15100}, {"sequence": "MGCLHFSLFVAFWVFIAFPPSVSYHLALYLLLLLLFILFLLMCGLLRAFGLPV", "transcriptional activation domain activity": 36700}, {"sequence": "MRCPFHLLHTTSGLVYTFYLLFWVLVDTLMFYFFFPSCMSLGSVGHLLFISCC", "transcriptional activation domain activity": 67600}, {"sequence": "SRPPRPSASSSTTPRARSRSTARPSRARWPRPRCPSSGGCTRACRTRRCTRRM", "transcriptional activation domain activity": 45300}, {"sequence": "TLVEINGNQIRGSSELMDKDNIYLHLRRIFTCFQIEFLKLTGLPFLLREKLPG", "transcriptional activation domain activity": 63400}, {"sequence": "EGKEERGKGGEGEGGEGGEGERRDGKREGREGNGNRGGTEGKGERRKRKSQRE", "transcriptional activation domain activity": 28700}, {"sequence": "NPLPPKNNGQAAYKETDGIRIKDRRVLVDVERGRTVKGWKPRRFGGGLGGRGY", "transcriptional activation domain activity": 47500}, {"sequence": "MLFFFCPIYLKLLIFFLCIVRSICQIFVFAYYLHRIYGVVCFSLLFFSKIQLR", "transcriptional activation domain activity": 58200}, {"sequence": "MLKLFWTISKVFGPSDLTLQERGHYMELIIALRFIQGWWQDRDLNGFLPLWVR", "transcriptional activation domain activity": 65000}, {"sequence": "LSVVHISAPGYQAFFLLQSFRYILLWVLSFLSHFFLPFFLLCQGCFLVQHLPT", "transcriptional activation domain activity": 54000}, {"sequence": "IRGMCPEKPQIREIVYLLRGLIVNRILLMTLKKRWNVQYGLHSTRDPIAVPFH", "transcriptional activation domain activity": 53200}, {"sequence": "WDMTLGGTINKTGVIGVIMIVIGFYLWFFLSCAVLIAMEGCSAMLHSLRLQWV", "transcriptional activation domain activity": 31300}, {"sequence": "MGFDQALGLKLSPSSSGLLSTNESNAIEQFLDNLISQDMMSSNASMNSESHLH", "transcriptional activation domain activity": 76500}, {"sequence": "GLNLPKISASYLCQYRGSLIGKHFKAIVQLMCFLCYDLLPAPLLNAWLILGRL", "transcriptional activation domain activity": 70900}, {"sequence": "MSTQGPAKRRGAQATDKPVKRTRVSRACDQCRIAREKCDGAQPTCSTCSTSRR", "transcriptional activation domain activity": 36700}, {"sequence": "PQEPQKGEEEGGARGRPRCPRRRGGPKEEAAVPVEAPAVLAAEPVKADEPAAP", "transcriptional activation domain activity": 30200}, {"sequence": "FAHIQPGLNVPIRAIMLCYLFNVAFGLLYLGPSVAFGAYISSCTILLNVSYAF", "transcriptional activation domain activity": 57100}, {"sequence": "TSKAQESKTKEGDKEEKAATKREKDDSKEEDDDDDNETEEKQAGDKRKKTNGS", "transcriptional activation domain activity": 30800}, {"sequence": "ASKRKRTEGESKKKEAKRERPKKKSRRDDDDDASGGDELEGKRSRKPKRASAS", "transcriptional activation domain activity": 18500}, {"sequence": "FPTLGFVVDRYFRVTNFVPETFWSIKVVHKKDSINVNFNWKRGHLFDRMTVTV", "transcriptional activation domain activity": 71400}, {"sequence": "GIVLLLNAWKGQKIGFVSKDLNLVYSCIRIANEAEERHIAAGRYVDFMNLLLH", "transcriptional activation domain activity": 45500}, {"sequence": "KYEEQEDKDEEEEEKEEEEEEEEEEEEEEEGKRGEGKKATAKRRSKGSAYGGK", "transcriptional activation domain activity": 17300}, {"sequence": "VAGVKSDWDASSDEEEKPVPVAERVNGASSQKSAASKSPSKVTPMPSKTAHLV", "transcriptional activation domain activity": 21300}, {"sequence": "SGTSLFLFYFYFIFILILISIITFFFLFLIFFFIILFLLLLFFSYPSGIRPGW", "transcriptional activation domain activity": 26900}, {"sequence": "GLGFFFSFSLFNFFLHASSLYLLFLVTLLDLHYIFLVLSLTLFRVYVCFISAP", "transcriptional activation domain activity": 43400}, {"sequence": "SSRSRSVSRQPPSPHEEEQEDAEEREAEDGKGGGGEGEREHQSRESSPAPART", "transcriptional activation domain activity": 27100}, {"sequence": "KSKAANAKGKKKGKKGKKNKKGKKGKKAKNAKKAKAVKVAKAPVAKAPAPAAK", "transcriptional activation domain activity": 17700}, {"sequence": "LVANDIIMGIALGSHIIENSELAATWVDTIFSTWSVDGLRRMIVWLMGWPGGL", "transcriptional activation domain activity": 27800}, {"sequence": "GAGVGGATDGAEGKKGDGGGGKEKEREEGERRKKKKKRNKEGRDGGGGGTGGD", "transcriptional activation domain activity": 43300}]}]}
